Assay results from the nanobody polyreactivity screen of Harvey et al. (2022).

Experiment: yeast display, Sf9 membrane polyspecificity reagent, FACS + sequencing; frameworks hold sequencing errors
Summary of the method: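 After 36–48 hours of galactose induction, yeast (Saccharomyces cerevisiae BJ5465) displaying a synthetic nanobody library were stained at 4 °C for 1 hour with 10% biotinylated, detergent-solubilized Sf9 membrane reagent. Streptavidin microbeads enriched the stained cells before FACS sorting into low and high (top ~1%) gates on anti-HA and streptavidin fluorescence. Each clone's polyreactivity label reflects its gate of origin.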

| Sequence | polyreactivity (PSR sort gate) |
| --- | --- |
| QVQLVESGGGLVQAGGSLRLICAASGRTFYPSVMGWYRQAPGKERELVARIRWSGSSTYYADSVKGRFTISRDNAKNTVYLQMNSLKPEDTAVYYCNARPSWYVLGSSVHSGMGYWGQGTQVTVSS | high polyreactivity |
| QVQLVESGGGLVQAGGSLRLICAASGRTFYWNAMGWYRQAPGKERELVAAISDGGGSTYYADSVKGRFTISRDNAKNTVYLQMNSLKPEDTAVYYCNTPDNQDKPYPGYDYWGQGTQVTVSS | low polyreactivity |
| QVQLVESGGGLVQAGGSLRLICAASGRTIYIYTMGWYRQAPGKERELVASISWNGGRTYYADSVKGRFTISRDNAKNTVYLQMNSLKPEDTAVYYCAAQYGVYDYLGQGTQVTVSS | low polyreactivity |
| QVQLVESGGGLVQAGGSLRLICAASGSIFDYYDMGWYRQAPGKERELVAANNWSGGITYYADSVKGRFTISRDYAKNTVYLQMNSLKPEDTEVYFCAADWYQWVYSSSITSFDYWGQGTQVTVSS | low polyreactivity |
| QVQLVESGGGLVQAGGSLRLICAASGSIFFSYAMGSYRQAPGKERELVAGINRSGGSTYADSVKGRFTISRDNAKNTVNLQMTSLKPEDTAVYYCAAKYYSERSRYHYWGQGTQVTVSS | low polyreactivity |
| QVQLVESGGGLVQAGGSLRLICAASGSIFGINAMGWYRQAPGKERELVAAITWSGTSTYYADSVKGRFTISRDNAKNTDYLQMNSMKPEDTAVYYCAARVGRGYRTYGYWGQGTQVTVSS | high polyreactivity |
| QVQLVESGGGLVQAGGSLRLICAASGSIFGYYAMGWYRQAPGKERELVAGITNSGDTNYADSVKGRFTISRDNAKNTVYLQMNSLKPEDTAVYYCAADGSYQYYYWGQGTQVTVSS | low polyreactivity |
| QVQLVESGGGLVQAGGSLRLICAASGSIFINNGMGWYRQAPGKERELVAAINGGDGSTYYADSVKGRFTISRDNAKNTVYLQMNSLKPEDTAVYYCAADQVTYSVEYDYWGQGTQVTVSS | low polyreactivity |
| QVQLVESGGGLVQAGGSLRLICAASGSIFRPNAMGWYRQAPGKERELVAAITWSGDSTYYADSVKGRFTISRDNAKNTVYLQMNSLKPEDTAVYYCAADFTYQGSSANDYWGQGTQVTVSS | low polyreactivity |
| QVQLVESGGGLVQAGGSLRLICAASGSIFRYAMGWYRQAPGKERELVAAINRSGGSTYYADSVKGRFTISRDNAKNTVYLQMNSLKTEDTEVYYCAKDLRYGVNYRLVNRYGYWGQGTQVTVSS | high polyreactivity |
| QVQLVESGGGLVQAGGSLRLICAASGSIFRYYAMGWYRQAHGKERELLAAISYSGGSTYYADSVKGRFTISRDNAKNTVYLQMNSLKPEDTAVYYCAKGRHTTRASIAFNYWGQGTQVTVSS | high polyreactivity |
| QVQLVESGGGLVQAGGSLRLICAASGSIFRYYAMGWYRQAPGKERELVATISWSGGGTYYADSVKGRFTISRHNAKNTVYLQMNSLKPEDTAVYYCAADYGEQYVYWGQGTQVTVSS | low polyreactivity |
| QVQLVESGGGLVQAGGSLRLICAASGSIFSRNAMGWYRQAPGKERELVASISWSSDITNYADSGKGRFTISRDNAKNTVYLEMNSLKAEDTAVYYCNVDGLLGERFSWGYDYWRQGTQVTVSS | low polyreactivity |
| QVQLVESGGGLVQAGGSLRLICAASGSIFSSYAMGWYRQAPGKERELVAAITSGGSTYYADSVKGRFTISRDNAKNTVYLQMNSLKPEDTAVYYCAARQVRTSKLHMGYWGQGTQVTVSS | low polyreactivity |
| QVQLVESGGGLVQAGGSLRLICAASGSIFSWYTMGWYRQAPGKERELVARITTSGGTTRYADSVKGRFTISRDNAKHTAFIQMNSLKPVDTAVYYCAADRSPYWRGYVRYNYWGQGTQVTVSS | high polyreactivity |
| QVQLVESGGGLVQAGGSLRLICAASGSIFVTNGMGWYRQAPGKERELVAAIRWSGDSTYYADSVKGRFTISRDNGKNTVFLLMKSLKPEDTAVYYCAAESFRYIRLNYKYGDYYWGQGTQVTVSS | high polyreactivity |
| QVQLVESGGGLVQAGGSLRLICAASGSIFVYNAMGWYRQAPGKERELVAAISQRGGSTYYADSVKGRFTISRDNAKNTVYLQMNSLKPEDTAVYYCAAGPGDSGDDYWGQGTQVTVSS | low polyreactivity |
